Reference: the RNAGym collection of RNA variant scans (doi:10.7554/elife.80360)

B1: Hairpin Ribozyme (parent)
chain: GUCCUCUUUCACGUGCGCGUGAAAGAGAGAAGUGAACCAGAGAAACACACGUUGUGGUAUAUUACCUGGUA

Variants of: B1
Assay: self-cleavage, relative activity (ratio to wild type); higher = more cleavage; co-transcriptional

Variant | self-cleavage
U7A A22U | 0.814
A23C G27C | 0.187
C10U A35G | 0.689
U55C A61C | 0.0408
A11G G40C | 0.188
A49C U67G | 0.109
C18U A49U | 0.141
G54A G57A | 0.182
G29A A61U | 0.096
A26U U67A | 0.196
A28C C65U | 0.249
A24G C48G | 0.181
C12A A44U | 0.186
G19A U55C | 0.123
G1U U67C | 0.0702
A49G G57U | 0.22
C6A A41U | 0.919
G19C A35U | 0.574
C6A C10U | 0.371
A36G G51C | 0.629
A35G G69A | 0.204
C10A C16A | 0.907
A43G G54U | 0.156
C12A G21C | 0.808

Variant | self-cleavage
A22U C48A | 0.16
C4A G40U | 0.141
A28C A49G | 0.173
G34C U58C | 1.4
A23G U55G | 0.192
C10G C66A | 0.0906
U60G U63G | 0.0801
C6G G68C | 0.131
C50A U58A | 0.183
G21A G32C | 0.146
A31C A64G | 0.0732
G1C C66A | 0.351
G25C C46G | 0.115
U20C G57C | 0.198
C3U C37G | 0.262
U33G C38A | 0.139
A36U A45U | 0.057
A43U C46A | 0.0823
C3U A39G | 0.122
U8A A36C | 0.412
G56U U58G | 0.0453
A44U G54U | 0.0855
G1A A71G | 0.205
U14A A64G | 0.589

Variant | self-cleavage
A30U U62A | 0.177
U7G A49G | 0.421
C6U U53G | 0.801
U8G C38A | 0.165
C66U U67C | 0.326
U5A U67G | 0.112
A11U A44U | 0.22
A11U A44G | 0.144
U2C U7A | 0.119
C3A A36G | 0.712
C3A A36U | 0.319
C12A C18U | 0.834
C4U U33C | 0.237
G27A C66G | 0.133
A45U U60C | 0.112
A35C G51A | 1.26
G19A A59C | 0.199
G21U U63A | 0.105
U14A U67A | 0.188
C10A G32A | 0.161
C6A U55C | 0.243
C12U U53A | 0.974
C12U A64U | 0.241
G34C A43U | 0.233

Variant | self-cleavage
A31G U70G | 0.376
U2A A64G | 0.0976
A44C U52G | 0.203
C6U U63G | 0.119
A26G A41C | 1.25
G54A U58A | 0.453
C18A G42A | 0.203
A45U G68U | 0.258
U7C G56A | 0.184
C48U A59U | 0.0991
G29C U33G | 0.13
C66A G69A | 0.268
U52C G56U | 0.149
A30C U62A | 0
G13U A45G | 0.0663
G15C G57A | 0.24
A24G G51A | 0.745
A31C C66A | 0.146
C12G A35U | 0.731
G25U A59C | 0.195
A36C G57C | 0.17
U14C G19A | 0.612
C4G G21U | 0.123
C18G C46A | 0.0797

Variant | self-cleavage
A24C C66U | 0.395
U8C G17C | 0.404
G40U U62G | 0.111
G21A A28U | 0.719
U7C G13U | 0.788
U20C U58A | 0.673
C6A C65A | 0.492
A30G C48U | 0.19
A45C G69A | 0.116
G1C C12A | 0.215
U5C A45G | 0.157
U5A G29A | 0.156
C16G A35G | 0.797
A49C A64C | 0.168
G1A A30C | 0.291
G34C U70G | 1.23
C4A G27C | 0.093
A11C C12A | 0.636
A36U U55A | 0.161
A11C G34C | 1.07
G27U U70G | 0.228
G15U A44G | 0.0895
A23C G25A | 0.235
A22U G42A | 0.264

Variant | self-cleavage
G21U U60G | 0.48
A31C G32A | 0.173
U33C U62A | 0.278
A61U G68A | 0.219
U8G A26U | 0.281
U52G A71C | 1.32
U7C U62C | 0.196
A35C U63C | 0.0565
A41U A59C | 0.158
A41U A59G | 0.255
A59G G68A | 0.135
C10A A11U | 0.41
A36U G42U | 0.173
U8C U55A | 0.16
C66U A71C | 0.757
C4U G13C | 0.282
C4U G13U | 0.314
U14C A64G | 0.568
G68U G69U | 0.183
A36C U60A | 0.439
C6A C46A | 0.119
U14C U33G | 0.191
U2G G27C | 0.112
G25U U33A | 0.0923

Variant | self-cleavage
U5G U67G | 0.164
U55C C65A | 0.142
C16G G42C | 0.152
G15A A31C | 0.151
G1A G54U | 0.153
C38U U70C | 0.268
G13C G68C | 0.151
U2C C3A | 0.114
G56A C66G | 0.114
A36G G69C | 0.449
C4A C66G | 0.193
C3G G19A | 0.2
C6G A22U | 0.377
G15A A28U | 0.588
G34U A47U | 0.876
G51C A71G | 0.814
U63A G68A | 0.276
G19A A39G | 0.274
A11U U55G | 0.339
A28G A41U | 1.05
G32A A36U | 0.111
A64G A71C | 0.76
A49G G54U | 0.541
C46G G51C | 0.0873

Variant | self-cleavage
U33A C37U | 0.109
A35G A47G | 0.142
G25C G40C | 0.102
G19A C65U | 0.265
A31G U62G | 0.199
G25A A44G | 0.158
U14A G15C | 1.06
G13U A31U | 0.109
A23G A30G | 0.211
A36C U53C | 0.953
U5A C18U | 0.554
U14C U58G | 0.545
U7C G69C | 0.17
A45U C66G | 0.236
A44U A49U | 0.109
A26C A43U | 0.224
U7A A44U | 0.117
G51U A59C | 0.103
C37A A61G | 0.207
A23G G69C | 0.303
G40U G68A | 0.134
G17C G19A | 0.836
G13A A36U | 0.491
A22U A23U | 0.842

Variant | self-cleavage
G42U U62G | 0.22
U9A U20G | 0.583
G40C G56A | 0.107
A36U C50G | 0.0987
G54U C65A | 0.561
G1C U2C | 0.233
C6U U70C | 0.901
A31G A61G | 0.118
A22G A28G | 0.735
A41C C48G | 0.199
U8C C10G | 0.114
G51U U62A | 0.25
U7G U33G | 0.194
G17A C18G | 1.15
G21U A36U | 0.661
U33G A44G | 0.0996
U14G G27A | 0.189
A30C G32U | 0.188
C6A C48G | 0.121
U5G U63C | 0.116
G27U A31U | 0.119
C3U C38G | 0.201
C6A G15U | 0.582
G13A U62C | 0.242

Variant | self-cleavage
G1U C37U | 0.0964
A36G U62G | 0.221
A11U A64U | 0.152
C3G G32A | 0.0849
U14G U67G | 0.243
G21A G29U | 0.186
G25C C66U | 0.182
G29C A43U | 0.0794
U5G A22G | 0.251
U5C A31C | 0.0543
A30G U53C | 0.288
G1U C4A | 0.202
A35U U60C | 0.559
G13C A22U | 0.528
U2C G42C | 0.108
U20C G29U | 0.235
G51A U62A | 0.137
G32U C66U | 0.194
U33C U58G | 0.0694
C4U U9A | 0.202
C38A G68U | 0.735
G25C U58G | 0.403
G57A U63G | 0.182
C3G A35C | 0.36

Variant | self-cleavage
C3G A44G | 0.15
U52A G54C | 0.47
G32A A59C | 0.133
A28G C65U | 0.498
A26C C46U | 0.172
A47U U58A | 0.106
C3G U60C | 0.314
C10U C66A | 0.183
U2A G21U | 0.271
G15A U70C | 0.759
G13A U52A | 1.01
G25A C37G | 0.134
G1A A44C | 0.2
A22G U33C | 0.192
A22G U33A | 0.115
G40A G56U | 0.0994
G1U C38U | 0.127
U9A G40C | 0.133
U14A U58A | 0.792
A26C C66G | 0.12
G13C U55A | 0.196
C10G G42A | 0.185
A45U C46A | 0.125
U9G A41C | 0.693

Variant | self-cleavage
C18U C38A | 0.111
C10A A39C | 0.463
A23G G32U | 0.0923
U58A A61U | 0.216
A23C U60G | 0.61
C10G G29U | 0.136
G15C A22C | 0.846
G15C A22G | 0.746
A24C U55C | 0.305
A23G G34C | 1.07
U5C U14A | 0.428
C16U A64G | 0.505
G19C G57A | 0.174
G19C C66G | 0.245
A24G C50A | 0.187
G15A G57U | 0.3
A28G G42C | 0.47
C48A C65A | 0.131
A28U G34U | 1.41
C3A A31U | 0.155
G25U A36U | 0.4
C4A A59U | 0.0921
A41C C50U | 0.713
U63C G68C | 0.133

Variant | self-cleavage
G13U A36G | 0.65
A30G A43G | 0.0977
A61G A64U | 0.202
U7G U20G | 0.453
C10G A71U | 0.589
C48A A71G | 0.19
G32U A43U | 0.148
C3U A43U | 0.207
A11C C66U | 0.408
A47C G54C | 0.228
C18U U62C | 0.393
G21U A26C | 0.123
G15U G54U | 0.632
G1U A59C | 0.183
G25C A61C | 0.0596
G40U C48A | 0.0709
G29A A36U | 0.278
G21C A71C | 1.12
U5A G51U | 0.389
U5C U63A | 0.104
G54U U55G | 0.399
U2G G15U | 0.395
A44U C65A | 0.184
C16U G27A | 0.536

Variant | self-cleavage
G29U C37U | 0.192
A49U U67C | 0.11
A47C U67G | 0.123
A41U U67A | 0.364
C6G C46G | 0.124
A47C U53A | 0.28
A22C A36C | 0.559
C16A G17C | 0.85
G57C A59C | 0.183
U2G C46G | 0.12
A22U U60C | 0.719
C10G G19A | 0.64
G56A G69C | 0.108
A41C A45C | 0.11
A41C A45G | 0.257
A23U G51A | 0.844
U62A G68C | 0.156
U2G G32A | 0.0684
G17C C46A | 0.113
A31C A61G | 0.0877
C16U G57U | 0.266
U2G A35C | 0.477
